The nature of this data set: Circular dichroism (CD) spectroscopy of α-helix secondary structure. The note with it: 25° C. In kind it is physicochemical. As for the experimental part:
CD spectra were recorded using a Chirascan circular dichroism spectrometer equipped with a Peltier temperature controller (Applied Photophysics Ltd.). The CD spectra of peptides were recorded at 190-260 nm.
The temperature was 25° C. and the peptide concentration was 6 μM.
The α-helix peptide substituted with an acryloyl group prepared in Preparation Example 1 (bisAAm-p53) was dissolved in a 10% HFIP solution (based on final concentration). After mixing with […] acrylamide, a peptide-polymer conjugate was prepared through free radical induced polymerization by adding ammonium persulfate (APS) and N,N,N′,N′-tetramethylethylenediamine (TEMED). The prepared 9 μM α-helix peptide multimer was diluted with a 0.2% HIFP solution.
Before CD spectrum measurement, HFIP was completely evaporated from the samples through centrifugation.
On the technique in general: Circular dichroism is widely used to follow secondary structure.

One substance from patent US10266631B2, “Method for preparing peptide-polymer conjugate with stabilized α-helix secondary structure and peptide-polymer conjugate prepared thereby” (INDUSTRY-ACADEMIC COOPERATION FOUNDATION, YONSEI UNIVERSITY, priority 2016, dated 2019) can be followed below.

* marks the point of attachment. Acryloyl = C=CC(=O)*

As for “Preparation Example 1: p53-derived peptide Ac-QSQQTFKNLWRLLKQN-NH2 with both lysine ε-amines (i, i+7) acryloylated; FIG. 16A (Ac-QSQQTFK(Acryloyl)NLWRLLK(Acryloyl)QN-NH2; SMILES C=CC(=O)NCCCC[C@H](NC(=O)[C@H](CC(C)C)NC(=O)[C@H](CC(C)C)NC(=O)[C@H](CCCNC(=N)N)NC(=O)[C@H](Cc1c[nH]c2ccccc12)NC(=O)[C@H](CC(C)C)NC(=O)[C@H](CC(N)=O)NC(=O)[C@H](CCCCNC(=O)C=C)NC(=O)[C@H](Cc1ccccc1)NC(=O)[C@@H](NC(=O)[C@H](CCC(N)=O)NC(=O)[C@H](CCC(N)=O)NC(=O)[C@H](CO)NC(=O)[C@H](CCC(N)=O)NC(C)=O)[C@@H](C)O)C(=O)N[C@@H](CCC(N)=O)C(=O)N[C@@H](CC(N)=O)C(N)=O)”, the “α-helix secondary structure (CD spectrum)” value is reported as “stabilized” (10% HFIP solution (HFIP:water=1:9, v/v), peptide 6 μM (FIG. 4)) and “not stabilized but unfolded” (distilled water, peptide 6 μM (FIG. 3)).
